Consider 1 protein from article doi:10.1101/2022.08.30.505785 (bioRxiv, 2022).

The data set concerns the molecule itself. In words: SAXS.

B1: Oxalyl-CoA synthetase from Saccharomyces cerevisiae, K352D variant (enzyme, S. cerevisiae, UniProt P38137 1-543, looked up)
chain: MTSAATVTASFNDTFSVSDNVAVIVPETDTQVTYRDLSHMVGHFQTMFTNPNSPLYGAVFRQDTVAISMRNGLEFIVAFLGATMDAKIGAPLNPNYKEKEFNFYLNDLKSKAICVPKGTTKLQSSEILKSASTFGCFIVELAFDATRFRVEYDIYSPEDNYKRVIYRSLNNAKFVNTNPVKFPGFARSSDVALILHTSGTTSTPKTVPLLHLNIVRSTLNIANTYKLTPLDRSYVVMPLFHVHGLIGVLLSTFRTQGSVVVPDGFHPKLFWDQFVKYNCNWFSCVPTISMIMLNMPKPNPFPHIRFIRSCSSALAPATFHKLEKEFNAPVLEAYAMTEASHQMTSNNLPPGDRKPGTVGQPQGVTVVILDDNDNVLPPGKVGEVSIRGENVTLGYANNPKANKENFTKRENYFRTGDQGYFDPEGFLVLTGRIKELINRGGEKISPIELDGIMLSHPKIDEAVAFGVPDDMYGQVVQAAIVLKKGEKMTYEELVNFLKKHLASFKIPTKVYFVDKLPKTATGKIQRRVIAETFAKSSRNKSKL
In the case of B1, the “stoichiometry N” value was determined as 2.
